Format in all cases: biochemical
A short description of assay [1]: carboxylate reductase enzyme activity assay (pimelate to pimelate semialdehyde), NADPH consumption at 340 nm. The conditions noted are these: purified enzyme enhanced by gene product of sfp; 2 mM pimelate, 1 mM ATP, 1 mM NADPH, pH 7.5, room temperature, 20 min; FIG. 8. How it is done: A nucleotide sequence encoding a HIS-tag was added to the nucleic acid sequences from Segniliparus rugosus and Segniliparus rotundus that encode the carboxylate reductases of SEQ ID NOs: 4 (EFV11917.1) and 6 (ADG98140.1), respectively (see FIG. 6C and FIG. 6E), such that N-terminal HIS tagged carboxylate reductases could be produced. Each of the modified genes was cloned into a pET Duet expression vector along with a sfp gene encoding a HIS-tagged phosphopantetheine transferase from Bacillus subtilis, both under the T7 promoter. Each expression vector was transformed into a BL21[DE3] E. coli host and the resulting recombinant E. coli strains were cultivated at 37° C. in a 250 mL shake flask culture containing 50 mL LB media and antibiotic selection pressure, with shaking at 230 rpm. Each culture was induced overnight at 37° C. using an auto-induction media.
The pellet from each induced shake flask culture was harvested via centrifugation. Each pellet was resuspended and lysed via sonication, and the cell debris was separated from the supernatant via centrifugation. […]
Enzyme activity assays (i.e., from pimelate to pimelate semialdehyde) were performed in triplicate in a buffer composed of a final concentration of 50 mM HEPES buffer (pH=7.5), 2 mM pimelate, 10 mM MgCl2, 1 mM ATP, and 1 mM NADPH. […] The consumption of NADPH was monitored by absorbance at 340 nm. […]

The nature of assay [2]: carboxylate reductase enzyme activity assay (pimelate semialdehyde to heptanedial), NADPH consumption at 340 nm. As to conditions: purified enzyme enhanced by gene product of sfp; 2 mM pimelate semialdehyde, 1 mM ATP, 1 mM NADPH, pH 7.5, room temperature, 20 min; FIG. 11. How it is done: The N-terminal His-tagged carboxylate reductase of SEQ ID NO: 6 (see Example 3 and FIG. 6E) was assayed using pimelate semialdehyde as substrate. The enzyme activity assay was performed in triplicate in a buffer composed of a final concentration of 50 mM HEPES buffer (pH=7.5), 2 mM pimelate semialdehyde, 10 mM MgCl2, 1 mM ATP, and 1 mM NADPH. The enzyme activity assay reaction was initiated by adding purified carboxylate reductase and phosphopantetheine transferase or the empty vector control to the assay buffer containing the pimelate semialdehyde and then incubated at room temperature for 20 min. The consumption of NADPH was monitored by absorbance at 340 nm.

A short description of assay [3]: carboxylate reductase enzyme activity assay (N7-acetyl-7-aminoheptanoate to N7-acetyl-7-aminoheptanal), NADPH consumption at 340 nm. The conditions noted are these: purified enzyme enhanced by gene product of sfp; 2 mM N7-acetyl-7-aminoheptanoate, 1 mM ATP, 1 mM NADPH, pH 7.5, room temperature, 20 min; FIG. 10. How it is done: The activity of each of the N-terminal His-tagged carboxylate reductases of SEQ ID NOs: 3, 5, and 6 (see Examples 2 and 3, and FIG. 6B, FIGS. 6D-6E) for converting N7-acetyl-7-aminoheptanoate to N7-acetyl-7-aminoheptanal was assayed in triplicate in a buffer composed of a final concentration of 50 mM HEPES buffer (pH=7.5), 2 mM N7-acetyl-7-aminoheptanoate, 10 mM MgCl2, 1 mM ATP, and 1 mM NADPH. The assays were initiated by adding purified carboxylate reductase and phosphopantetheine transferase or the empty vector control to the assay buffer containing the N7-acetyl-7-aminoheptanoate then incubated at room temperature for 20 min. The consumption of NADPH was monitored by absorbance at 340 nm.

B1: SEQ ID NO: 4: Segniliparus rugosus carboxylate reductase, N-terminal HIS tagged (protein, listed as Segniliparus rugosus)
chain: MGDGEERAKRFFQRIGELSATDPQFAAAAPDPAVVEAVSDPSLSFTRYLDTLMRGYAERPALAHRVGAGYETISYGELWARVGAIAAAWQADGLAPGDFVATVGFTSPDYVAVDLAAARSGLVSVPLQAGASLAQLVGILEETEPKVLAASASSLEGAVACALAAPSVQRLVVFDLRGPDASESAADERRGALADAEEQLARAGRAVVVETLADLAARGEALPEAPLFEPAEGEDPLALLIYTSGSTGAPKGAMYSQRLVSQLWGRTPVVPGMPNISLHYMPLSHSYGRAVLAGALSAGGTAHFTANSDLSTLFEDIALARPTFLALVPRVCEMLFQESQRGQDVAELRERVLGGRLLVAVCGSAPLSPEMRAFMEEVLGFPLLDGYGSTEALGVMRNGIIQRPPVIDYKLVDVPELGYRTTDKPYPRGELCIRSTSLISGYYKRPEITAEVFDAQGYYKTGDVMAEIAPDHLVYVDRSKNVLKLSQGEFVAVAKLEAAYGTSPYVKQIFVYGNSERSFLLAVVVPNAEVLGARDQEEAKPLIAASLQKIAKEAGLQSYEVPRDFLIETEPFTTQNGLLSEVGKLLRPKLKARYGEALEARYDEIAHGQADELRALRDGAGQRPVVETVVRAAVAISGSEGAEVGPEANFADLGGDSLSALSLANLLHDVFEVEVPVRIIIGPTASLAGIAKHIEAERAGASAPTAASVHGAGATRIRASELTLEKFLPEDLLAAAKGLPAADQVRTVLLTGANGWLGRFLALEQLERLARSGQDGGKLICLVRGKDAAAARRRIEETLGTDPALAARFAELAEGRLEVVPGDVGEPKFGLDDAAWDRLAEEVDVIVHPAALVNHVLPYHQLFGPNVVGTAEIIRLAITAKRKPVTYLSTVAVAAGVEPSSFEEDGDIRAVVPERPLGDGYANGYGNSKWAGEVLLREAHELVGLPVAVFRSDMILAHTRYTGQLNVPDQFTRLVLSLLATGIAPKSFYQQGAAGERQRAHYDGIPVDFTAEAITTLGAEPSWFDGGAGFRSFDVFNPHHDGVGLDEFVDWLIEAGHPISRIDDHKEWFARFETAVRGLPEAQRQHSLLPLLRAYSFPHPPVDGSVYPTGKFQGAVKAAQVGSDHDVPHLGKALIVKYADDLKALGLL
modifications: N-terminal His tag
notes: Segniliparus rugosus carboxylate reductase, N-terminal HIS tagged
On to B1, for which, in assay [1], the “acceptance of pimelate as substrate (NADPH consumption), confirmed against the empty vector control” value was “accepted pimelate as substrate”.

B2: SEQ ID NO: 6: Segniliparus rotundus carboxylate reductase, N-terminal HIS tagged (protein, listed as Segniliparus rotundus)
chain: MTQSHTQGPQASAAHSRLARRAAELLATDPQAAATLPDPEVVRQATRPGLRLAERVDAILSGYADRPALGQRSFQTVKDPITGRSSVELLPTFDTITYRELRERATAIASDLAHHPQAPAKPGDFLASIGFISVDYVAIDIAGVFAGLTAVPLQTGATLATLTAITAETAPTLFAASIEHLPTAVDAVLATPSVRRLLVFDYRAGSDEDREAVEAAKRKIADAGSSVLVDVLDEVIARGKSAPKAPLPPATDAGDDSLSLLIYTSGSTGTPKGAMYPERNVAHFWGGVWAAAFDEDAAPPVPAINITFLPLSHVASRLSLMPTLARGGLMHFVAKSDLSTLFEDLKLARPTNLFLVPRVVEMLYQHYQSELDRRGVQDGTREAEAVKDDLRTGLLGGRILTAGFGSAPLSAELAGFIESLLQIHLVDGYGSTEAGPVWRDGYLVKPPVTDYKLIDVPELGYFSTDSPHPRGELAIKTQTILPGYYKRPETTAEVFDEDGFYLTGDVVAQIGPEQFAYVDRRKNVLKLSQGEFVTLAKLEAAYSSSPLVRQLFVYGSSERSYLLAVIVPTPDALKKFGVGEAAKAALGESLQKIARDEGLQSYEVPRDFIIETDPFTVENGLLSDARKSLRPKLKEHYGERLEAMYKELADGQANELRDIRRGVQQRPTLETVRRAAAAMLGASAAEIKPDAHFTDLGGDSLSALTFSNFLHDLFEVDVPVGVIVSAANTLGSVAEHIDAQLAGGRARPTFATVHGKGSTTIKASDLTLDKFIDEQTLEAAKHLPKPADPPRTVLLTGANGWLGRFLALEWLERLAPAGGKLITIVRGKDAAQAKARLDAAYESGDPKLAGHYQDLAATTLEVLAGDFSEPRLGLDEATWNRLADEVDFISHPGALVNHVLPYNQLFGPNVAGVAEIIKLAITTRIKPVTYLSTVAVAAGVEPSALDEDGDIRTVSAERSVDEGYANGYGNSKWGGEVLLREAHDRTGLPVRVFRSDMILAHQKYTGQVNATDQFTRLVQSLLATGLAPKSFYELDAQGNRQRAHYDGIPVDFTAESITTLGGDGLEGYRSYNVFNPHRDGVGLDEFVDWLIEAGHPITRIDDYDQWLSRFETSLRGLPESKRQASVLPLLHAFARPGPAVDGSPFRNTVFRTDVQKAKIGAEHDIPHLGKALVLKYADDIKQLGLL
modifications: N-terminal His tag
notes: Segniliparus rotundus carboxylate reductase, N-terminal HIS tagged
With B2, in assay [2], the “acceptance of pimelate semialdehyde as substrate (NADPH consumption), confirmed against the empty vector control” value is “accepted pimelate semialdehyde as substrate”. In addition, the “acceptance of N7-acetyl-7-aminoheptanoate as substrate (NADPH consumption), confirmed against the empty vector control” value in assay [3] is “accepted N7-acetyl-7-aminoheptanoate as substrate”. In addition, the “acceptance of pimelate as substrate (NADPH consumption), confirmed against the empty vector control” value in assay [1] is “accepted pimelate as substrate”.

The record behind these values is patent US10920254B2, “Methods and materials for producing 5 and 7-carbon monomers” (INVISTA North America S.á.r.l., priority 2015, dated 2021).
